Source: the supplement of paper PMC5998384

Columns and labels:
HeLa Kyoto [1] = assay: thermal stability score vs G1/S (z-score of summed log2 fold changes over temperatures); higher = more thermally stable than in G1/S
HeLa Kyoto [2] = assay: solubility change mitosis vs G1/S (difference of NP-40 vs SDS log2 ratios) (log2 ratio difference); higher = more soluble in mitosis
HeLa Kyoto [3] = assay: solubility in G1/S (NP-40 vs SDS abundance) (log2 ratio); higher = more soluble; details: cell cycle stage: G1/S
HeLa Kyoto [4] = assay: melting temperature (median over replicates), in situ; higher = more thermally stable
[5] = cell cycle stage: early G1 (4.5 h after nocodazole release)
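For melting temperature (median over replicates), in situ in this document: HeLa Kyoto cells synchronized by double thymidine or nocodazole block, proteins quantified by TMT10plex mass spectrometry, three independent biological replicates.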
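For solubility change mitosis vs G1/S (difference of NP-40 vs SDS log2 ratios) in this document: synchronized HeLa Kyoto cells (double thymidine block for G1/S, nocodazole release for mitosis), protein amounts in NP-40 versus SDS lysates quantified by mass spectrometry, three biological replicates.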
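For solubility in G1/S (NP-40 vs SDS abundance) in this document: HeLa Kyoto cells arrested at G1/S by double thymidine block, proteins quantified by TMT10plex mass spectrometry in mild NP-40 versus SDS extracts, three biological replicates.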
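For thermal stability score vs G1/S (z-score of summed log2 fold changes over temperatures) in this document: synchronized HeLa Kyoto cells, proteins quantified by TMT10plex mass spectrometry, three biological replicates, mitosis taken 0.5 h after nocodazole release, G1/S directly after double thymidine block.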

| Sequence | thermal stability score (HeLa Kyoto [1]; [5]) | thermal stability score (HeLa Kyoto [1]; cell cycle stage: mitosis) | solubility change mitosis (log2) (HeLa Kyoto [2]) | solubility in G1/S (log2) (HeLa Kyoto [3]) | melting temperature (HeLa Kyoto [4]; cell cycle stage: G1/S) [°C] | melting temperature (HeLa Kyoto [4]; cell cycle stage: mitosis) [°C] |
| --- | --- | --- | --- | --- | --- | --- |
| MAGVSFSGHRLELLAAYEEVIREESAADWALYTYEDGSDDLKLAASGEGGLQELSGHFENQKVMYGFCSVKDSQAALPKYVLINWVGEDVPDARKCACASHVAKVAEFFQGVDVIVNASSVEDIDAGAIGQRLSNGLARLSSPVLHRLRLREDENAEPVGTTYQKTDAAVEMKRINREQFWEQAKKEEELRKEEERKKALDERLRFEQERMEQERQEQEERERRYREREQQIEEHRRKQQTLEAEEAKRRLKEQSIFGDHRDEEEETHMKKSESEVEEAAAIIAQRPDNPREFFKQQERVASASAGSCDVPSPFNHRPGSHLDSHRRMAPTPIPTRSPSDSSTASTPVAEQIERALDEVTSSQPPPLPPPPPPAQETQEPSPILDSEETRAAAPQAWAGPMEEPPQAQAPPRGPGSPAEDLMFMESAEQAVLAAPVEPATADATEIHDAADTIETDTATADTTVANNVPPAATSLIDLWPGNGEGASTLQGEPRAPTPPSGTEVTLAEVPLLDEVAPEPLLPAGEGCATLLNFDELPEPPATFCDPEEVEGESLAAPQTPTLPSALEELEQEQEPEPHLLTNGETTQKEGTQASEGYFSQSQEEEFAQSEELCAKAPPPVFYNKPPEIDITCWDADPVPEEEEGFEGGD [DBN1] | -3.76 | -0.742 | 0.101 | -1.2 | 52.3 | 52.1 |
| MAHRPKRTFRQRAADSSDSDGAEESPAEPGAPRELPVPGSAEEEPPSGGGRAQVAGLPHRVRGPRGRGRVWASSRRATKAAPRADEGSESRTLDVSTDEEDKIHHSSESKDDQGLSSDSSSSLGEKELSSTVKIPDAAFIQAARRKRELARAQDDYISLDVQHTSSISGMKRESEDDPESEPDDHEKRIPFTLRPQTLRQRMAEESISRNEETSEESQEDEKQDTWEQQQMRKAVKIIEERDIDLSCGNGSSKVKKFDTSISFPPVNLEIIKKQLNTRLTLLQETHRSHLREYEKYVQDVKSSKSTIQNLESSSNQALNCKFYKSMKIYVENLIDCLNEKIINIQEIESSMHALLLKQAMTFMKRRQDELKHESTYLQQLSRKDETSTSGNFSVDEKTQWILEEIESRRTKRRQARVLSGNCNHQEGTSSDDELPSAEMIDFQKSQGDILQKQKKVFEEVQDDFCNIQNILLKFQQWREKFPDSYYEAFISLCIPKLLNPLIRVQLIDWNPLKLESTGLKEMPWFKSVEEFMDSSVEDSKKESSSDKKVLSAIINKTIIPRLTDFVEFLWDPLSTSQTTSLITHCRVILEEHSTCENEVSKSRQDLLKSIVSRMKKAVEDDVFIPLYPKSAVENKTSPHSKFQERQFWSGLKLFRNILLWNGLLTDDTLQELGLGKLLNRYLIIALLNATPGPDVVKKCNQVAACLPEKWFENSAMRTSIPQLENFIQFLLQSAHKLSRSEFRDEVEEIILILVKIKALNQAESFIGEHHLDHLKSLIKED [GCFC2] | -2.18 | -1.62 | -0.0501 | 0.109 | 51.2 | 51.7 |
| MAKMEVKTSLLDNMIGVGDMVLLEPLNEETFINNLKKRFDHSEIYTYIGSVVISVNPYRSLPIYSPEKVEEYRNRNFYELSPHIFALSDEAYRSLRDQDKDQCILITGESGAGKTEASKLVMSYVAAVCGKGAEVNQVKEQLLQSNPVLEAFGNAKTVRNDNSSRFGKYMDIEFDFKGDPLGGVISNYLLEKSRVVKQPRGERNFHVFYQLLSGASEELLNKLKLERDFSRYNYLSLDSAKVNGVDDAANFRTVRNAMQIVGFMDHEAESVLAVVAAVLKLGNIEFKPESRVNGLDESKIKDKNELKEICELTGIDQSVLERAFSFRTVEAKQEKVSTTLNVAQAYYARDALAKNLYSRLFSWLVNRINESIKAQTKVRKKVMGVLDIYGFEIFEDNSFEQFIINYCNEKLQQIFIELTLKEEQEEYIREDIEWTHIDYFNNAIICDLIENNTNGILAMLDEECLRPGTVTDETFLEKLNQVCATHQHFESRMSKCSRFLNDTSLPHSCFRIQHYAGKVLYQVEGFVDKNNDLLYRDLSQAMWKASHALIKSLFPEGNPAKINLKRPPTAGSQFKASVATLMKNLQTKNPNYIRCIKPNDKKAAHIFNEALVCHQIRYLGLLENVRVRRAGYAFRQAYEPCLERYKMLCKQTWPHWKGPARSGVEVLFNELEIPVEEYSFGRSKIFIRNPRTLFKLEDLRKQRLEDLATLIQKIYRGWKCRTHFLLMKKSQIVIAAWYRRYAQQKRYQQTKSSALVIQSYIRGWKARKILRELKHQKRCKEAVTTIAAYWHGTQARRELRRLKEEARNKHAIAVIWAYWLGSKARRELKRLKEEARRKHAVAVIWAYWLGLKVRREYRKFFRANAGKKIYEFTLQRIVQKYFLEMKNKMPSLSPIDKNWPSRPYLFLDSTHKELKRIFHLWRCKKYRDQFTDQQKLIYEEKLEASELFKDKKALYPSSVGQPFQGAYLEINKNPKYKKLKDAIEEKIIIAEVVNKINRANGKSTSRIFLLTNNNLLLADQKSGQIKSEVPLVDVTKVSMSSQNDGFFAVHLKEGSEAASKGDFLFSSDHLIEMATKLYRTTLSQTKQKLNIEISDEFLVQFRQDKVCVKFIQGNQKNGSVPTCKRKNNRLLEVAVP [MYO1B] | -0.836 | -0.507 | -0.0354 | -0.528 | 50.5 | 50.1 |
| MAKPAQGAKYRGSIHDFPGFDPNQDAEALYTAMKGFGSDKEAILDIITSRSNRQRQEVCQSYKSLYGKDLIADLKYELTGKFERLIVGLMRPPAYCDAKEIKDAISGIGTDEKCLIEILASRTNEQMHQLVAAYKDAYERDLEADIIGDTSGHFQKMLVVLLQGTREEDDVVSEDLVQQDVQDLYEAGELKWGTDEAQFIYILGNRSKQHLRLVFDEYLKTTGKPIEASIRGELSGDFEKLMLAVVKCIRSTPEYFAERLFKAMKGLGTRDNTLIRIMVSRSELDMLDIREIFRTKYEKSLYSMIKNDTSGEYKKTLLKLSGGDDDAAGQFFPEAAQVAYQMWELSAVARVELKGTVRPANDFNPDADAKALRKAMKGLGTDEDTIIDIITHRSNVQRQQIRQTFKSHFGRDLMTDLKSEISGDLARLILGLMMPPAHYDAKQLKKAMEGAGTDEKALIEILATRTNAEIRAINEAYKEDYHKSLEDALSSDTSGHFRRILISLATGHREEGGENLDQAREDAQVAAEILEIADTPSGDKTSLETRFMTILCTRSYPHLRRVFQEFIKMTNYDVEHTIKKEMSGDVRDAFVAIVQSVKNKPLFFADKLYKSMKGAGTDEKTLTRIMVSRSEIDLLNIRREFIEKYDKSLHQAIEGDTSGDFLKALLALCGGED [ANXA6] | 5.43 | 4.61 | -0.172 | 0.275 | 50 | 50 |
| MAKQKRKVPEVTEKKNKKLKKASAEGPLLGPEAAPSGEGAGSKGEAVLRPGLDAEPELSPEEQRVLERKLKKERKKEERQRLREAGLVAQHPPARRSGAELALDYLCRWAQKHKNWRFQKTRQTWLLLHMYDSDKVPDEHFSTLLAYLEGLQGRARELTVQKAEALMRELDEEGSDPPLPGRAQRIRQVLQLLS [C7ORF50] | 0.0776 | 0.494 | 0.57 | -0.289 | 50 | 53.5 |
